Results: patent publication US20220403023A1

Key:
[1] = target: CD47 on human origin tumor cells (human) (UniProt Q08722); assay: FACS on 293F cells
[2] = target: CD47 on human origin tumor cells (human) (UniProt Q08722); assay: FACS on A204 cells
[3] = target: CD47 on human origin tumor cells (human) (UniProt Q08722); assay: FACS on A375 cells
[4] = target: CD47 on human origin tumor cells (human) (UniProt Q08722); assay: FACS on A431 cells
[5] = target: CD47 on human origin tumor cells (human) (UniProt Q08722); assay: FACS on FaOb cells
[6] = target: CD47 on human origin tumor cells (human) (UniProt Q08722); assay: FACS on HT29 cells
[7] = target: CD47 on human origin tumor cells (human) (UniProt Q08722); assay: FACS on BT474 cells
[8] = target: CD47 on human origin tumor cells (human) (UniProt Q08722); assay: FACS on HepG2 cells
[9] = target: CD47 on human origin tumor cells (human) (UniProt Q08722); assay: FACS on Hut78 cells
[10] = target: CD47 on human origin tumor cells (human) (UniProt Q08722); assay: FACS on Ramos cells
[11] = target: CD47 on human origin tumor cells (human) (UniProt Q08722); assay: FACS on BxPC-3 cells
[12] = target: CD47 on human origin tumor cells (human) (UniProt Q08722); assay: FACS on CaLu-6 cells
[13] = target: CD47 on human origin tumor cells (human) (UniProt Q08722); assay: FACS on Jurkat.268 cells
[14] = target: CD47 on human origin tumor cells (human) (UniProt Q08722); assay: FACS on MDA-MB-453 cells
4-1B8.his = assay: non-specific binding ELISA, protein coated 1 µg/mL
CD147.his = assay: non-specific binding ELISA, protein coated 1 µg/mL
CD22.his = assay: non-specific binding ELISA, protein coated 1 µg/mL
CD3.his = assay: non-specific binding ELISA, protein coated 1 µg/mL
CD40.his = assay: non-specific binding ELISA, protein coated 1 µg/mL
CTLA4.his = assay: non-specific binding ELISA, protein coated 1 µg/mL
FGFR.his = assay: non-specific binding ELISA, protein coated 1 µg/mL
Factor Eight = assay: non-specific binding ELISA, protein coated 1 µg/mL
[15] = target: HER3.his (Homo sapiens (Human)) (UniProt P21860); assay: non-specific binding ELISA, protein coated 1 µg/mL
HSA. = HSA. (UniProt P02768); assay: non-specific binding ELISA, protein coated 1 µg/mL
OX40.his = assay: non-specific binding ELISA, protein coated 1 µg/mL
[16] = target: PD-1.his (Homo sapiens (Human)) (UniProt Q15116); assay: non-specific binding ELISA, protein coated 1 µg/mL
VEGF.his = assay: non-specific binding ELISA, protein coated 1 µg/mL
VEGFR2.his = assay: non-specific binding ELISA, protein coated 1 µg/mL
[17] = target: CD47 on human red blood cells (human) (UniProt Q08722); assay: FACS on human red blood cells, goat anti-human IgG-Fc PE; blank (Neg) 232
[18] = target: human CD47 on engineered CHO-K1 cells (human) (UniProt Q08722); assay: competition FACS against human SIRPα-His (1 µg/mL) on CHOK1-huCD47 cells; ligand only 1086
[19] = target: human CD47 ECD protein (human) (UniProt Q08722); assay: ELISA on plate-coated human CD47 ECD (1 µg/mL), goat anti-human IgG-Fc-HRP, OD450; blank (Neg) 0.102
[20] = target: human CD47 ECD protein (human) (UniProt Q08722); assay: competition ELISA against human SIRPα-His (1 µg/mL) on plate-coated human CD47 ECD; ligand only 1.438
[21] = target: human CD47 on engineered CHO-K1 cells (human) (UniProt Q08722); assay: FACS on CHO-K1 cells expressing human CD47 (CHOK1-huCD47), goat anti-human IgG-Fc PE; blank (Neg) 34.8
[22] = target: cynomolgus monkey CD47 on engineered CHO-K1 cells (cynomolgus monkey); assay: FACS on CHO-K1 cells expressing cynomolgus CD47 (CHOK1-cynoCD47), goat anti-human IgG-Fc PE; blank (Neg) 47.6

Chain of OX40.his (P43489 29-214): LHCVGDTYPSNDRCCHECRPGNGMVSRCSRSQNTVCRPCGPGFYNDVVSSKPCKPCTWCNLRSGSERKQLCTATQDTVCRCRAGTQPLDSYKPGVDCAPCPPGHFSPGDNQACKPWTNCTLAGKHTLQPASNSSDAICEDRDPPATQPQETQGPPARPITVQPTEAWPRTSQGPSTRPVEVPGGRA
Chain of VEGFR2.his (P35968 20-764): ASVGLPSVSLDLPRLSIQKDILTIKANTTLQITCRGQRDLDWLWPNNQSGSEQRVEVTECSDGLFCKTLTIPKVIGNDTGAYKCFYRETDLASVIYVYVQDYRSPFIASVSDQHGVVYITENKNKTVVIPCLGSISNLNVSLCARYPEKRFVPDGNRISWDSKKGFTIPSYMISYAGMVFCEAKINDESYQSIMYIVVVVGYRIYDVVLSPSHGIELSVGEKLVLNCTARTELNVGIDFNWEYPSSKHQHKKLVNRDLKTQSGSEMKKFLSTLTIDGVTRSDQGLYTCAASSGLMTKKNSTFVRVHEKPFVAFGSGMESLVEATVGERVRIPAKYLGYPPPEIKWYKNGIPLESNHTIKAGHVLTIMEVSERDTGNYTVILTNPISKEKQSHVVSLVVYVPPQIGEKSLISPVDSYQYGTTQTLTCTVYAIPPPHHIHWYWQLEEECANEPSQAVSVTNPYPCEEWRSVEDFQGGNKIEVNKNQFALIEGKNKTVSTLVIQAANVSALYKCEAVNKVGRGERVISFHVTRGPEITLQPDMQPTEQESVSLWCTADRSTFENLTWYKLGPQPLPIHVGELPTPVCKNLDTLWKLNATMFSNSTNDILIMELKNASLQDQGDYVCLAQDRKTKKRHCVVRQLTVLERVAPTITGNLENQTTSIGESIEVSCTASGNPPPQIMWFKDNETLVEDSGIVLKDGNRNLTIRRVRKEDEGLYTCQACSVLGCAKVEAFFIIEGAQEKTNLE
Chain of CD40.his (P25942 21-193): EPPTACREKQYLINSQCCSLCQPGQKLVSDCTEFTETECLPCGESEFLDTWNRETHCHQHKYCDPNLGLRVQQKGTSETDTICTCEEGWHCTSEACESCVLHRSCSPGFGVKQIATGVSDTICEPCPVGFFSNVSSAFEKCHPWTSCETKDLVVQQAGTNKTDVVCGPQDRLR
Chain of CTLA4.his (P16410 36-161): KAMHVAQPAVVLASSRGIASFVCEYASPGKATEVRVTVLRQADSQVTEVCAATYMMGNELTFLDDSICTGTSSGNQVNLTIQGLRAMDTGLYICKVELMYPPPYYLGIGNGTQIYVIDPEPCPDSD
Chain of PD-1.his (Homo sapiens (Human)) (Q15116 25-170 limits assumed): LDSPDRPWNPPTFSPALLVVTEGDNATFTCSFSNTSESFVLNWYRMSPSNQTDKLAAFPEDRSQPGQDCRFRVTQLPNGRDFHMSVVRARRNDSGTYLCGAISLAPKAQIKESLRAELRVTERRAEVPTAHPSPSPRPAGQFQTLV
Chain of 4-1B8.his (Q07011 24-186): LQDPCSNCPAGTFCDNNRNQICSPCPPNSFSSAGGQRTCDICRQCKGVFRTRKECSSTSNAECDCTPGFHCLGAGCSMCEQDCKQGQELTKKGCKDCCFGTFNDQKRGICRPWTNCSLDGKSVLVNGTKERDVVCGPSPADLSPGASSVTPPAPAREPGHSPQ

Row | MFI [1] | MFI [2] | MFI [3] | MFI [4] | MFI [5] | MFI [6] | MFI [7] | MFI [8] | MFI [9] | MFI [10] | MFI [11] | MFI [12] | MFI [13] | MFI [14] | ELISA-OD450 (4-1B8.his) | ELISA-OD450 (CD147.his) | ELISA-OD450 (CD22.his) | ELISA-OD450 (CD3.his) | ELISA-OD450 (CD40.his) | ELISA-OD450 (CTLA4.his) | Substance | also measured
1 | 28.7 | 42.4 | 49.5 | 251 | 429 | 45.7 | 19.1 | 27.3 | 50.2 | 68.4 | 110 | 88.4 | 64.3 | 28.3 | 0.0463 | 0.0443 | 0.0467 | 0.0518 | 0.205 | 0.0571 | hIgG4L Isotype control (antibody) | ELISA-OD450 (FGFR.his): 0.137; ELISA-OD450 (Factor Eight): 0.0481; ELISA-OD450 [15]: 0.0445; ELISA-OD450 (HSA.): 0.335; ELISA-OD450 (OX40.his): 0.051; ELISA-OD450 [16]: 0.227; ELISA-OD450 (VEGF.his): 0.0463; ELISA-OD450 (VEGFR2.his): 0.0441
2 |  |  |  |  |  |  |  |  |  |  |  |  |  |  |  |  |  |  |  |  | IgG4 isotype control (antibody) | Max MFI [17]: 238 MFI; Max Inhibit% [18]: 12.2%; Min MFI [18]: 953 MFI; Max OD [19]: 0.123 OD450; Max Inhibit% [20]: 21.2%; Min OD [20]: 1.13 OD450; Max MFI [21]: 66 MFI; Max MFI [22]: 97.9 MFI
3 | 56.4 | 34.7 | 22.8 | 39.5 | 36.2 | 44.3 | 20.8 | 32.2 | 49.7 | 74.4 | 42.9 | 23.3 | 36.9 | 32.2 | 0.0463 | 0.0424 | 0.0451 | 0.0479 | 0.213 | 0.0562 | hIgG4K Isotype control (antibody) | ELISA-OD450 (FGFR.his): 0.133; ELISA-OD450 (Factor Eight): 0.181; ELISA-OD450 [15]: 0.044; ELISA-OD450 (HSA.): 0.322; ELISA-OD450 (OX40.his): 0.0508; ELISA-OD450 [16]: 3.71; ELISA-OD450 (VEGF.his): 0.0452; ELISA-OD450 (VEGFR2.his): 0.0432
